According to patent US20110059063A1 (Amgen, published 2011):
Substitutions are numbered along the chain they refer to.

B1: anti-PAR-2 antibody 9B12 (antibody, V domains shown)
VH: QVQLVESGGGVVQPGRSLRLSCAASGFTFSSYGMHWVRQAPGKGLEWVAVIWYDGSNKYYADSVKGRFTISRDNSKNTLYLQMNSLRAEDTAVYYCARDLGAAAGTGFDYWGQGTLVTVSS
VL: QSVLTQPPSVSAAPGQKVTISCSGSSSNIGNNYVSWYQQLPGTAPKLLIYDNNKRPSGIPDRFSGSKSGTSATLGITGLQTGDEADYYCGTWDSSLSAGVVFGGGTKLTVL
B2: anti-PAR-2 antibody 1A1 (antibody, V domains shown)
VH: EVQLVQSGAEVKKPGESLKISCKGSGYNFISHWIGWVRQMPGKGLEWMGMIYPGDSDTRYSPSFQGQVTISADKSINTAYLQWRSLKASDTAMYFCARHGGITGTTFYYDFGMDVWGQGTTVTVSS
VL: SYELTQPPSVSVSPGQTARITCSGDALPKQYASWYQQKPGQAPLLVIYRDSERPSGLPERFSGSSSGTTVTLTISGVQAEDEADYYCQSADSGGSYVFGTGTKVTVL
notes: Human antibody from a XenoMouse hybridoma; also called monoclonal antibody 1A1
B3: anti-PAR-2 antibody 1B5 (antibody, V domains shown)
VH: EVQLVQSGAEVKKSGESLKISCKGSGYSFSNYWIGWVRQMPGKGLEWMGIIYPGDSDTRYSPSFQGQVTISADKSIRTAYLQWSSLKASDTAMYYCARHKGITGTTFYYDYGMDVWGQGTTVTVSS
VL: B2 VL with D25E, L44V, S51T, L57I, G93N, S95A, K103R
notes: Human antibody from a XenoMouse hybridoma
B4: anti-PAR-2 antibody 1C7 (antibody, V domains shown)
VH: B3 VH with S14P, S30T, N31S
VL: B2 VL with D25E, L44V, R49K, L57I, G93N, S95A
notes: as for B3
B5: anti-PAR-2 antibody 12D5 (antibody, V domains shown)
VH: QVQLQQSGPGLVKPSQTLSLTCAISGDSVSSNRAAWNWIRQSPSRGLEWLGRTYYRSKWYNDFAVSVRSRITITPDTSKNQFSLQLNSVTPEDTAVYYCARDRNSGYYYYGLDVWGQGTTVTVSS
VL: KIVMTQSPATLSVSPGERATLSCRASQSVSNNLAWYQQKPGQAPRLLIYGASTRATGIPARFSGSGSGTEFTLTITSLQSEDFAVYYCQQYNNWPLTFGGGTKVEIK
B6: anti-PAR-2 antibody 13F2 (antibody, V domains shown)
VH: B5 VH with F63H, R68K, T94K
VL: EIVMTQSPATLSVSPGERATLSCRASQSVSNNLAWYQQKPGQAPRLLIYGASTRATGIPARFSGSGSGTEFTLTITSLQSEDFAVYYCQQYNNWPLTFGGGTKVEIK
B7: anti-PAR-2 antibody 2C6 (antibody, V domains shown)
VH: QVQLVQSGAEVKKPGASVKVSCKASGYTFTGYFFHWVRQAPGQGLEWVGWINPNSGATHFAQKFQGRVTMTRDTSISTAYMELSRLRSDDTAVYYCARDGSNWNRDYGMDVWGQGTTVTVSS
VL: QSVLTQPPSASGTPGQRVTISCSGSSSNIGINHVYWYQQLPGTAPKIFIYRNNQRPSGVPDRFSGSKSGTSASLAISGLRSEDEADYYCAVWDDSLSGVVFGGGTKLTVLG

Legend:
[1] = biological target: PAR-2 (on the cells of the FLIPR Ca2+ mobilization assay); experiment: cell-based or functional assay
PAR-2 (on the cells of the FLIPR Ca2+ mobilization assay), sequence (P55085 whole entry): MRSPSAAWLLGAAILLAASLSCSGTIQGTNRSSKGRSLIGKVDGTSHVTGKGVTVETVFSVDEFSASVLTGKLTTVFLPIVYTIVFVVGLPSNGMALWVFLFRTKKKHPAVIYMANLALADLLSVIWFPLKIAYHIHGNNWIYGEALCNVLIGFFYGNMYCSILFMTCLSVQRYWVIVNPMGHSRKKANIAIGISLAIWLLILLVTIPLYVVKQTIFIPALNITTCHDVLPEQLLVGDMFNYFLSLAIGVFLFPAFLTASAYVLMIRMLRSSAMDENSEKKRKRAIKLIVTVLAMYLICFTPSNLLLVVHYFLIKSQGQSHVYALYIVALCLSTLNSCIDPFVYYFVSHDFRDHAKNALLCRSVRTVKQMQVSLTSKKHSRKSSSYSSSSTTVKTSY

[2] = biological target: T1, clipped N-terminal PAR-2/Fc polypeptide (human); experiment: Western blot; by the footnote, an upstream binder binds only the full-length PAR-2/Fc
T1 construct: also called truncated amino-terminal PAR-2-Fc; cleaved PAR-2/Fc
Text: To analyze binding to uncleaved versus cleaved PAR-2, various amounts of purified uncleaved and clipped N-terminal PAR2-Fc are subjected to SDS-PAGE using 8-16% polyacrylamide gradient gels (Novex gels, Invitrogen Life Technologies) in a Tris-Glycine buffer system. Gel lanes containing See Blue standards (Novex, Invitrogen Life Technologies) for molecular weight identification are also included. Following electrophoresis, proteins are transferred from gels onto nitrocellulose membranes using a Novex XCell II Blot Module (Invitrogen Life Technologies). Membranes are blocked with 1:1, Odyssey blocking buffer, OBB, (LI-COR Biosciences):TBS (Tris Buffer Saline) overnight at 4 C with shaking. Antibodies to be analyzed are diluted in 1:1 OBB:TBS at a desired final concentration for 1 hr at room temperature. Membranes are washed extensively with 0.1% Tween 20 in TBS (3-4 changes of 100 ml over ˜1 hr). Membranes are then exposed to the appropriate secondary antibody-Alexa680 (Molecular Probes, Invitrogen Life Technologies) conjugate (goat anti-rabbit IgG, or goat anti-mouse IgG) diluted 1:5000 in 1:1 (OBB:TBS) for 1 hr at room temperature. Membranes are washed as described above, and if desired, analyzed using a LI-COR Odyssey Infrared Imaging System (LI-COR Biosciences).
Several PAR-2 antibodies were tested in different assay formats; Table 2 summarizes the results. IC₅₀ values were determined in a FLIPR assay for Ca2+ mobilization described previously; binding to the upstream region of the cleavage site versus the downstream region of the cleavage site was determined using the Western blot assay described previously.

[3] = biological target: T2, cell surface expressed human PAR-2 (human, UniProt P55085 25-397); experiment: KinExA, cells expressing human PAR-2, averaged for N=5 experiments; antibody 1A1; N=5 experiments
T2 sequence: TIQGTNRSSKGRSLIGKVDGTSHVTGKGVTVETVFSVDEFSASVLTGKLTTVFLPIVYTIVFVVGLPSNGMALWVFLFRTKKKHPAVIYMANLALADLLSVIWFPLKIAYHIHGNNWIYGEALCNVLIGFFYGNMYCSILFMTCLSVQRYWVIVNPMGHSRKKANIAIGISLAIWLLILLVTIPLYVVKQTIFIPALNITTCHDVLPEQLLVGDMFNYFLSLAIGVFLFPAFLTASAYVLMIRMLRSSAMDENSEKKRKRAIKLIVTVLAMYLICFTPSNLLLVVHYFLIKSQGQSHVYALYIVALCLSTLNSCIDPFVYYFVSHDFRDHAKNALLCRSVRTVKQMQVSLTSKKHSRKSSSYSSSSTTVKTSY
Text: This example describes the analysis of the binding properties of PAR-2 antigen-binding proteins to cell surface expressed PAR-2 utilizing a Kinetic Exclusion Assay which measures binding events in solution phase and can be used to calculate KD, Kₒₙ and Koff (KinExA®; Sapidyne Instruments, Boise, Id.), substantially as described previously by Xie et. al. J. Imm, Methods 304:1 (2005) and Rathanaswami et. al. Anal. Biochem. 373:52 (2008). Briefly, serial dilutions of cells expressing human PAR-2 (for example, CHO transfectants expressing human PAR-2 at the cell surface, obtainable by transfecting CHO cells with human full length PAR-2 cDNA encoding a polypeptide of SEQ ID NO:2) and control cells (i.e., non-transfected CHO cells) in a modified DMEM medium (phenol red free containing 10% heat inactivated FBS, 0.1 mM MEM non-essential amino acids, 1 mM sodium pyruvate, penicillin-streptomycin-glutamine, and 0.025% (w/w) sodium azide) are incubated with set amounts of antibody for 24 to 36 hours at 4 C with rotation. […] The free mAb is measured by KinExA® using the appropriate capture beads and Cy5-conjugated anti-human secondary antibodies, as described by Rathanaswami et al. Biochem Biophys Research Commun:1004 (2005). […]
The KD of certain PAR-2 antibodies was determined in this manner.

Binder	IC50, FLIPR assay for Ca2+ mobilization [1] [nM]	binding result [2]	Kd [3] [nM]
B1	> 1000	–	–
B2	2	no binding	0.0628
B3	3	no binding	–
B4	3	no binding	–
B5	> 1000	–	–
B6	> 1000	–	–
B7	> 1000	–	–
